{
  "source": "patent US9766250B2",
  "about": "“Method for detecting protein-protein interaction” (MEDICAL & BIOLOGICAL LABORATORIES CO., LTD., priority 2011, dated 2017)",
  "key": {"[1]": {"biological_target": "T1, mTOR(FRB) and FKBP12 interaction (Homo sapiens, UniProt P42345+P62942)", "T1 construct": "region having the 2025th to 2114th amino acids of the mTOR protein; expressed in transfected cells; host or cells: HeLaS3; 293T for some combinations with FKBP12-Tankyrase(SAM)", "T1 sequence (P42345 2025-2114)": "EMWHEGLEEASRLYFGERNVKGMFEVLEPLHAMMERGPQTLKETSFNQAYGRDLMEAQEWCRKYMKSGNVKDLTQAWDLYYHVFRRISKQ", "T1 sequence (P62942 whole entry, the tested form may be a part)": "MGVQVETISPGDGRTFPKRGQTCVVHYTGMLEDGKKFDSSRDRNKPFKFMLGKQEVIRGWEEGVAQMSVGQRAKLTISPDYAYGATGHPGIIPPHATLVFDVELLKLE", "assay": "Degree of fluorescent focus (assembly) formation after rapamycin, fluorescent proteins fused to mTOR(FRB) (Example 8, Table 1)", "format": "cell-based", "design": "key to degree of fluorescent focus formation, Tankyrase (SAM): +++: fluorescent foci were observed in 50% or more of the HeLaS3 cells; ++: fluorescent foci were observed in 50% or less of the HeLaS3 cells; +: fluorescent foci were observed in 293T cells expressing a larger amount of proteins than that in the HeLaS3 cells", "details": "fluorescent protein fused to mTOR(FRB); for degree of fluorescent focus formation, DGKd (SAM): with FKBP12-DGKd(SAM); for degree of fluorescent focus formation, TEL (SAM): with FKBP12-TEL(SAM); for degree of fluorescent focus formation, Tankyrase (SAM): with FKBP12-Tankyrase(SAM), some combinations in 293T cells; for degree of fluorescent focus formation, P62 (PB1): with p62(PB1)-FKBP12", "experimental": "Note that plasmid DNAs encoding fusion proteins composed of mTOR(FRB) and the corresponding fluorescent proteins were prepared as appropriate by the same method as that described in Example 2. Moreover, regarding the combinations of FKBP12-Tankyrase(SAM) with mKO2, mKeima, mMiCy1, mKO1, MiCy1, and TGuv, the test was conducted by introducing the genes into 293T cells. Specifically, the 293T cells were cultured in DMEM High glucose (manufactured by SIGMA ALDRICH CO.) containing 10% FBS (manufactured by Equitech-Bio Inc.). Moreover, the 293T cells were seeded onto an 8-well chamber (manufactured by Nunc A/S) 6 hours before the plasmid DNAs were introduced. Further, at the time of the transfection, 200 ng of the plasmid DNA encoding FKBP12-Tankyrase(SAM) and 200 ng of one of the plasmid DNAs encoding fusion proteins composed of the fluorescent proteins and mTOR(FRB) were diluted with 30 μl of OptiMEM (manufactured by Life Technologies Corporation), and 1.2 μl of TurboFect Transfection Reagent (manufactured by Thermo Fisher Scientific Inc.) was added thereto and stirred. Then, the resultant was further mixed with 300 μl of the culture solution, subsequently added to the 293T cells, and observed 48 hours later."}, "[2]": {"biological_target": "T1, mTOR(FRB) and FKBP12 interaction", "assay": "Degree of fluorescent focus (assembly) formation after rapamycin with TFG(PB1) (Example 9, Table 2)", "format": "cell-based", "design": "key: ++: fluorescent foci were observed in 50% or less of the HeLaS3 cells; +: fluorescent foci were observed in the 293T cells expressing a larger amount of proteins than that in the HeLaS3 cells", "details": "fluorescent protein fused to mTOR(FRB), KO1 and dAG (AB) in 293T cells"}},
  "data": [
    {"molecule": "monomericMidoriishi-Cyan1 (protein, Synthetic sequence mMiCy1) MVSYSKQGIAQEMRTKYRMEGSVNGHEFTIEGVGTGNPYEGKQTSELVIIKPKGKPLPFSFDILSTVFQYGNRCFTKYPADMPDYFKQAFPDGMSYERSFLFEDGGVATASWSIRLEGNCFIHNSIYHGTNFPADGPVMKKQTIGWDKSSEKMSVAKEVLRGDVTQFLLLEGGGYQRCQLHSTYKTEKPVAMPPSHVVEHQIVRTDLGQTAKGFKVKLEEHAEAHVNPLKVK", "values": [
      {"measurement": "degree of fluorescent focus formation, DGKd (SAM)", "setting": "[1]", "result": "+++ (fluorescent foci were observed in 50% or more of the HeLaS3 cells)"},
      {"measurement": "degree of fluorescent focus formation, TEL (SAM)", "setting": "[1]", "result": "+++ (fluorescent foci were observed in 50% or more of the HeLaS3 cells)"},
      {"measurement": "degree of fluorescent focus formation, Tankyrase (SAM)", "setting": "[1]", "result": "+"},
      {"measurement": "degree of fluorescent focus formation, P62 (PB1)", "setting": "[1]", "result": "+++ (fluorescent foci were observed in 50% or more of the HeLaS3 cells)"}
    ]},
    {"molecule": "dimeric Azami-Green (AB) (protein, Synthetic sequence dAG(AB)) MVSVIKPEMKIKLCMRGTVNGHNFVIEGEGKGNPYEGTQILDLNVTEGAPLPFAYDILTTVFQYGNRAFTKYPADIQDYFKQTFPEGYHWERSMTYEDQGICTATSNISMRGDCFFYDIRFDGVNFPPNGPVMQKKTLKWEPSTEKMYVRDGVLKGDVNMALLLEGGGHYRCDFKTTYKAKKDVRLPDAHKVDHRIEILKHDKDYNKVKLYENAVARYSMLPSQAK", "values": [
      {"measurement": "degree of fluorescent focus formation, TFG (PB1)", "setting": "[2]", "result": "+"},
      {"measurement": "degree of fluorescent focus formation, DGKd (SAM)", "setting": "[1]", "result": "+++ (fluorescent foci were observed in 50% or more of the HeLaS3 cells)"},
      {"measurement": "degree of fluorescent focus formation, TEL (SAM)", "setting": "[1]", "result": "+++ (fluorescent foci were observed in 50% or more of the HeLaS3 cells)"},
      {"measurement": "degree of fluorescent focus formation, Tankyrase (SAM)", "setting": "[1]", "result": "++ (fluorescent foci were observed in 50% or less of the HeLaS3 cells)"},
      {"measurement": "degree of fluorescent focus formation, P62 (PB1)", "setting": "[1]", "result": "+++ (fluorescent foci were observed in 50% or more of the HeLaS3 cells)"}
    ]},
    {"molecule": "dimeric Azami-Green (AC) (protein, Synthetic sequence dAG(AC)) MVSVIKPEMKIKLCMRGTVNGHNFVIEGEGKGNPYEGTQILDLNVTEGAPLPFAYDILTTVFQYGNRAFTKYPADIQDYFKQTFPEGYHWERSMTYEDQGICTATSNISMRGDCFFYDIRFDGTNFPPNGPVMQKKTLKWEPSTEKMYVRDGVLKGDVNMALLLEGGGHYRCDFKTTYKAKKDVRLPDYHFVDHRIEILKHDKDYNKVKLYENAVARYSMLPSQAK", "values": [
      {"measurement": "degree of fluorescent focus formation, TFG (PB1)", "setting": "[2]", "result": "++ (fluorescent foci were observed in 50% or less of the HeLaS3 cells)"},
      {"measurement": "degree of fluorescent focus formation, DGKd (SAM)", "setting": "[1]", "result": "+++ (fluorescent foci were observed in 50% or more of the HeLaS3 cells)"},
      {"measurement": "degree of fluorescent focus formation, TEL (SAM)", "setting": "[1]", "result": "+++ (fluorescent foci were observed in 50% or more of the HeLaS3 cells)"},
      {"measurement": "degree of fluorescent focus formation, Tankyrase (SAM)", "setting": "[1]", "result": "++ (fluorescent foci were observed in 50% or less of the HeLaS3 cells)"},
      {"measurement": "degree of fluorescent focus formation, P62 (PB1)", "setting": "[1]", "result": "+++ (fluorescent foci were observed in 50% or more of the HeLaS3 cells)"}
    ]},
    {"molecule": "Kusabira-Cyan1 (protein, Synthetic sequence KCy1) MVSVIKPEMKMRYYMDGSVNGHEFTVEGEGTGRPYEGKHKITLDVTKGGPLPFAFDLLSTVFSYGNRALTKYPDDIPDYFKQCFPGGYSWERKFEFEDGGLAIAKAEISLKGNCFEHKSTIEGTFPDSSPIMQNKTLGWEPSTEKMTVRDGSMKGDDAAYLKLVGGGNHKCYFTTTYTAKKKIPNLPGSHFIGHRISSVVEGTKIKVMEDAIAHLYPFNGS", "values": [
      {"measurement": "degree of fluorescent focus formation, DGKd (SAM)", "setting": "[1]", "result": "+++ (fluorescent foci were observed in 50% or more of the HeLaS3 cells)"},
      {"measurement": "degree of fluorescent focus formation, TEL (SAM)", "setting": "[1]", "result": "+++ (fluorescent foci were observed in 50% or more of the HeLaS3 cells)"},
      {"measurement": "degree of fluorescent focus formation, Tankyrase (SAM)", "setting": "[1]", "result": "++ (fluorescent foci were observed in 50% or less of the HeLaS3 cells)"},
      {"measurement": "degree of fluorescent focus formation, P62 (PB1)", "setting": "[1]", "result": "+++ (fluorescent foci were observed in 50% or more of the HeLaS3 cells)"}
    ]},
    {"molecule": "monomeric Kusabira-Orange 2 (protein, Synethetic sequence of monomeric version pf KO(Kusabira-Orange)) MVSVIKPEMKMRYYMDGSVNGHEFTIEGEGTGRPYEGHQEMTLRVTMAEGGPMPFAFDLVSHVFCYGHRVFTKYPEEIPDYFKQAFPEGLSWERSLEFEDGGSASVSAHISLRGNTFYHKSKFTGVNFPADGPIMQNQSVDWEPSTEKITASDGVLKGDVTMYLKLEGGGNHKCQMKTTYKAAKEILEMPGDHYIGHRLVRKTEGNITEQVEDAVAHS", "values": [
      {"measurement": "degree of fluorescent focus formation, DGKd (SAM)", "setting": "[1]", "result": "+++ (fluorescent foci were observed in 50% or more of the HeLaS3 cells)"},
      {"measurement": "degree of fluorescent focus formation, TEL (SAM)", "setting": "[1]", "result": "++ (fluorescent foci were observed in 50% or less of the HeLaS3 cells)"},
      {"measurement": "degree of fluorescent focus formation, Tankyrase (SAM)", "setting": "[1]", "result": "+"},
      {"measurement": "degree of fluorescent focus formation, P62 (PB1)", "setting": "[1]", "result": "+++ (fluorescent foci were observed in 50% or more of the HeLaS3 cells)"}
    ]},
    {"molecule": "TGuv: fluorescent protein capable of homotetramerization, SEQ ID NO: 147 (protein, Synthetic sequence TGuv) MVSVIGKDMIMKLHVEGCVNGHSFKIEGDGKGKPYEGDQTVKLRVTEGGPLPFAFDILSASMCYGNRCFTKYPAEIPDIFKQTFPEGYSWERALTFEDGGFASSSSHISVRGNCFFYDVKYHGVNFPSNGPIMQRKTIGWQPSTEKLYIGEGTLKGDDTMFLKLEGGGTHKCHVLTTYKTKKDVQMPDSHFIDHRLLTSHLDKECNNVELREHAVARNSSLPSR", "values": [
      {"measurement": "degree of fluorescent focus formation, DGKd (SAM)", "setting": "[1]", "result": "+++ (fluorescent foci were observed in 50% or more of the HeLaS3 cells)"},
      {"measurement": "degree of fluorescent focus formation, TEL (SAM)", "setting": "[1]", "result": "+++ (fluorescent foci were observed in 50% or more of the HeLaS3 cells)"},
      {"measurement": "degree of fluorescent focus formation, Tankyrase (SAM)", "setting": "[1]", "result": "+"},
      {"measurement": "degree of fluorescent focus formation, P62 (PB1)", "setting": "[1]", "result": "+++ (fluorescent foci were observed in 50% or more of the HeLaS3 cells)"}
    ]},
    {"molecule": "COR3.01: fluorescent protein capable of homotetramerization, SEQ ID NO: 151 (protein, Synthetic sequence COR3.01) MALSKHGLTKNMTTKYRMEGCVDGHKFVITGDGIGDPFEGKQTSIDLCVVEGGPLPFSEDILSTVFDYGNRVFTKYPQDLVDYFKNSCPAGYTWQRSFLFEDGAVCTASADIRVSVEENCFYHESKFHGVNFPADGPVMKKMTTNWEPSCEKITPILNEGILKGDVTMFLLLKDGGRYRCQFDTVYKAKADAKKMPEWHFIQHELTREDRSDAKHQKWRLVENAIAYRSTLP", "values": [
      {"measurement": "degree of fluorescent focus formation, TFG (PB1)", "setting": "[2]", "result": "++ (fluorescent foci were observed in 50% or less of the HeLaS3 cells)"},
      {"measurement": "degree of fluorescent focus formation, DGKd (SAM)", "setting": "[1]", "result": "+++ (fluorescent foci were observed in 50% or more of the HeLaS3 cells)"},
      {"measurement": "degree of fluorescent focus formation, TEL (SAM)", "setting": "[1]", "result": "+++ (fluorescent foci were observed in 50% or more of the HeLaS3 cells)"},
      {"measurement": "degree of fluorescent focus formation, Tankyrase (SAM)", "setting": "[1]", "result": "+++ (fluorescent foci were observed in 50% or more of the HeLaS3 cells)"},
      {"measurement": "degree of fluorescent focus formation, P62 (PB1)", "setting": "[1]", "result": "+++ (fluorescent foci were observed in 50% or more of the HeLaS3 cells)"}
    ]},
    {"molecule": "Momiji: fluorescent protein capable of homotetramerization, SEQ ID NO: 149 (protein, Synthetic sequence Momiji) MVSVIKDEMKVNLRMEGSVNGHDFVIDGLGSGKPKEGTQTIELKVVKGGPLPFAYDILTTAFHYGNRVFAKYPKDIPNYFEQSFPEGYSWERSMIFEDGGICIARNDITMDGGTFYNKVRFYGVNFPPNGPVMQKKTQKWEQSTEKMYARDGVLTGDINMALLLKGGGHYRCDFRTTYKAKEKGVKLPGYHFIDHCIEILSHRNDYNNVTLFEHAVARSGLQDKEKQQQ", "values": [
      {"measurement": "degree of fluorescent focus formation, TFG (PB1)", "setting": "[2]", "result": "++ (fluorescent foci were observed in 50% or less of the HeLaS3 cells)"},
      {"measurement": "degree of fluorescent focus formation, DGKd (SAM)", "setting": "[1]", "result": "+++ (fluorescent foci were observed in 50% or more of the HeLaS3 cells)"},
      {"measurement": "degree of fluorescent focus formation, TEL (SAM)", "setting": "[1]", "result": "+++ (fluorescent foci were observed in 50% or more of the HeLaS3 cells)"},
      {"measurement": "degree of fluorescent focus formation, Tankyrase (SAM)", "setting": "[1]", "result": "+++ (fluorescent foci were observed in 50% or more of the HeLaS3 cells)"},
      {"measurement": "degree of fluorescent focus formation, P62 (PB1)", "setting": "[1]", "result": "+++ (fluorescent foci were observed in 50% or more of the HeLaS3 cells)"}
    ]}
  ]
}
